According to patent US20240261333A1, “NOVEL TARGETS FOR ENHANCING ANTI-TUMOR IMMUNITY” (THE BROAD INSTITUTE, INC., priority 2021, published 2024):

Target: T1, B3GNT2 (Homo sapiens, UniProt Q9NY97)
T1 construct: The respective ORFs of candidate genes [CD274 (NM_014143), MCL1 (NM_021960), JUNB (NM_002229), and B3GNT2 (NM_006577)] were synthesized; expressed in transfected cells; host or cells: A375 melanoma cells (lentiviral ORF overexpression)
T1 sequence (Q9NY97 1-397): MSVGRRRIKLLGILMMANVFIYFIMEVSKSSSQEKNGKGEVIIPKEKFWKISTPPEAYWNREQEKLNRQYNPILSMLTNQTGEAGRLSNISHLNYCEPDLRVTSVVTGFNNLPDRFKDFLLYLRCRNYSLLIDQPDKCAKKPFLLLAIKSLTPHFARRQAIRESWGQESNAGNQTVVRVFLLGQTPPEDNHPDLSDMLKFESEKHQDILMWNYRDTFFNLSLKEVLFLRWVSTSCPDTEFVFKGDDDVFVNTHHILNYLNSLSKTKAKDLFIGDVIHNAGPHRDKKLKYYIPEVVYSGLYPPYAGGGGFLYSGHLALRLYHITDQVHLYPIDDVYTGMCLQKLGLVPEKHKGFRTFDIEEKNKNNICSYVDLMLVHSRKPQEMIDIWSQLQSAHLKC
Assay: Co-IP of FLAG-tagged B3GNT2 followed by mass spectrometry
Format: cell-based
Set-up: C-term IgG / C-term flag: unit not given here
Description: Cells were plated in 10-cm cell culture dishes and grown to 60-80% confluency. For each condition, two biological replicates were harvested for co-IP. Cells were washed with PBS and 4 mL of lysis buffer (20 mM HEPES, 1% Triton X-100, 150 mM NaCl, 1 mM EDTA, and 10% glycerol) containing protease inhibitor cocktail was added. Cells were scraped and lysate was incubated at 4° C. under rotary agitation for 1 h. Lysate was centrifuged at 14,000×g for 10 min at 4° C. Supernatant was transferred to a new tube and an aliquot was taken as the input. […] For Western blots, 10 μg/mL Chicken Anti-FLAG (Aves labs ET-DY100) and IgY control (R&D Systems AB-101-C) antibodies were biotinylated (Thermo Fisher Scientific 90407) and added to the respective conditions. Lysates with antibodies were incubated at 4° C. under rotary agitation overnight. For each mL of lysate, 50 μL of Pierce Protein A/G Magnetic Beads (Mass spectrometry; Thermo Fisher Scientific 88803) or Pierce Streptavidin Magnetic Beads (Western blot; Thermo Fisher Scientific 88817) was washed twice with lysis buffer. Lysates with antibodies were added to the beads and incubated at 4° C. under rotary agitation for 4 h. Beads were washed with lysis buffer 3 times and resuspended in lysis buffer for storage. […] This solution was subjected to solid phase extraction to concentrate the peptides and remove unwanted reagents followed by injection onto a Shimadzu HPLC with fraction collector. Eight fractions were collected and after concentration were injected on a Waters NanoAcquity HPLC equipped with a self-packed Aeris 3 μm C18 analytical column 0.075 mm by 20 cm, (Phenomenex). Peptides were eluted using standard reverse-phase gradients. The effluent from the column was analyzed using a Thermo Orbitrap Elite mass spectrometer (nanospray configuration) operated in a data dependent manner for 54 minutes. […] Scaffold Q+S (Proteome Software) was used to provide consensus reports for the identified proteins.

[1] = Co-IP followed by mass spectrometry of B3GNT2, C-term tag, FLAG pull-down
[2] = Co-IP followed by mass spectrometry of B3GNT2, C-term tag, IgG pull-down
[3] = Co-IP followed by mass spectrometry of B3GNT2, N-term tag, FLAG pull-down
[4] = Co-IP followed by mass spectrometry of B3GNT2, N-term tag, IgG pull-down
[5] = Co-IP with FLAG antibody, C-terminally FLAG-tagged B3GNT2, mass spectrometry count, unit not given
[6] = Co-IP with FLAG antibody, N-terminally FLAG-tagged B3GNT2, mass spectrometry count, unit not given
[7] = Co-IP with IgG control antibody, C-terminally FLAG-tagged B3GNT2, mass spectrometry count, unit not given
[8] = Co-IP with IgG control antibody, N-terminally FLAG-tagged B3GNT2, mass spectrometry count, unit not given

Substance | C-term flag [1] | C-term IgG [2] | N-term FLAG [3] | N-term IgG [4] | C-term flag [5] | N-term FLAG [6] | C-term IgG [7] | N-term IgG [8]
LAMC1 | 4 | 0 | 0 | 0 |  |  |  | 
FLG | 22 | 15 | 29 | 20 |  |  |  | 
TAF15 | 10 | 4 | 5 | 10 |  |  |  | 
CFL1 | 6 | 3 | 5 | 3 |  |  |  | 
UGGT1 |  |  |  |  | 5 | 2 | 0 | 0
KRT4 | 37 | 0 | 22 | 21 |  |  |  | 
PCMT1 | 2 | 0 | 4 | 0 |  |  |  | 
EIF4A1 |  |  |  |  | 6 | 2 | 0 | 0
PIGR |  |  |  |  | 5 | 2 | 0 | 0
TECR |  |  |  |  | 9 | 0 | 0 | 0
TNC |  |  |  |  | 10 | 0 | 0 | 0
PRRC2C | 15 | 6 | 6 | 11 |  |  |  | 
HSP90AB1 |  |  |  |  | 11 | 10 | 2 | 0
RPS24 | 8 | 2 | 0 | 4 |  |  |  | 
DNAJA1 |  |  |  |  | 10 | 6 | 0 | 0
RNASE1 |  |  |  |  | 2 | 0 | 0 | 0
IPO13 |  |  |  |  | 2 | 0 | 0 | 0
ABCF1 |  |  |  |  | 2 | 0 | 0 | 0
SPTAN1 | 3 | 0 | 0 | 0 |  |  |  | 
GBF1 | 5 | 0 | 0 | 0 |  |  |  | 
YBX3 |  |  |  |  | 7 | 0 | 0 | 0

Substance | C-term flag [1] | C-term IgG [2] | N-term FLAG [3] | N-term IgG [4] | C-term flag [5] | N-term FLAG [6] | C-term IgG [7] | N-term IgG [8]
SRSF1 | 9 | 3 | 4 | 5 |  |  |  | 
ECPAS |  |  |  |  | 0 | 3 | 0 | 0
PSMA1 |  |  |  |  | 0 | 2 | 0 | 0
CSPG4 |  |  |  |  | 12 | 2 | 0 | 0
TUBB2A |  |  |  |  | 0 | 128 | 0 | 0
HSP90B1 |  |  |  |  | 56 | 9 | 0 | 0
XRCC5 |  |  |  |  | 3 | 0 | 0 | 0
SEL1L |  |  |  |  | 5 | 3 | 0 | 0
PSMA4 |  |  |  |  | 0 | 2 | 0 | 0
CLTC | 7 | 5 | 6 | 6 |  |  |  | 
S100A8 |  |  |  |  | 3 | 15 | 5 | 4
ATP5F1B | 4 | 0 | 2 | 0 |  |  |  | 
TUBB |  |  |  |  | 117 | 164 | 10 | 10
NPM1 |  |  |  |  | 8 | 0 | 0 | 0
HBA1 |  |  |  |  | 4 | 3 | 0 | 3
S100A9 |  |  |  |  | 9 | 18 | 5 | 0
PPIA |  |  |  |  | 0 | 6 | 0 | 0
ITGB3 | 3 | 0 | 3 | 0 |  |  |  | 
CTSD |  |  |  |  | 4 | 3 | 0 | 3
DNAJA2 | 3 | 0 | 3 | 0 |  |  |  | 
LGALS7B | 4 | 3 | 7 | 4 |  |  |  | 

Substance | C-term flag [1] | C-term IgG [2] | N-term FLAG [3] | N-term IgG [4] | C-term flag [5] | N-term FLAG [6] | C-term IgG [7] | N-term IgG [8]
CCT3 | 5 | 0 | 0 | 0 |  |  |  | 
SRSF3 | 7 | 3 | 6 | 4 |  |  |  | 
ERLIN2 |  |  |  |  | 9 | 8 | 0 | 0
ENO1 |  |  |  |  | 4 | 5 | 2 | 2
HNRNPK | 12 | 10 | 9 | 8 |  |  |  | 
PSMC4 |  |  |  |  | 0 | 3 | 0 | 0
LARP4 |  |  |  |  | 2 | 0 | 0 | 0
ELOC |  |  |  |  | 2 | 0 | 0 | 0
PSMD3 |  |  |  |  | 0 | 3 | 0 | 0
STRAP |  |  |  |  | 3 | 4 | 0 | 0
TFAM | 3 | 0 | 0 | 0 |  |  |  | 
HADHA |  |  |  |  | 2 | 0 | 0 | 0
CALU |  |  |  |  | 13 | 10 | 0 | 0
ATM |  |  |  |  | 0 | 3 | 0 | 0
PRRC2A | 5 | 3 | 2 | 3 |  |  |  | 
SEC16A |  |  |  |  | 0 | 2 | 0 | 0
P01837.1 | 146 | 108 | 89 | 87 |  |  |  | 
SSRP1 | 6 | 0 | 0 | 0 |  |  |  | 
LRP2 |  |  |  |  | 2 | 0 | 0 | 0
